19 sequences from a protein production outcome set (Wang et al. 2014) can be followed below.

The data set can be described thus: label from the status in PepcDB records.
Consider “MAHRRDRGLLGIWGDLVLTSVFIAAVSLALFWMAAFTLWWQMHAWRTPEVLASTRFSRPDGGEGLSFSLLLPARHEQAVLDHTIQRLLESSHTDFEIIVIVGHDDPETTEVARKAAARDERVRVVVDTHEKKNKPKAMNTALPHCRGDVVGVFDAEDQVHPELLAHVDHAFRSTGADVVQGGVQLINFNSSWYSLRNCLEYFFWFRSRLHLHAQKGFIPLGGNTVFVRTDVLKEADGWDPDCLAEDCDLGVRLSSVGKKVVVAYDSDMVTREETPGSLMSLLKQRTRWNQGFLQVYRKKDWKQLPGFGQRLLARYTLMTPFLQAISGVIIPLNAAVALFLDVPVGIAFITFLPAVTAFVTFVFEVVGLHDFGKQYGLRVRSVHYLKLIVGGPFYQVLLAGAAIRAVWREQRGRNDWELTSHVGAHLTEVIREDVPA”, for which the protein production entry is “failed”.

For the sequence “MGWFSAPEYWLGRLALERGTAIIYLIAFVAAAQQFRPLIGEHGMLPVPRYLAGQSFWRTPSIFHFRYSDRVFAGVCWLGAVLSAAVVAGAASFVPLWATMLIWLTLWVLYLSIVNVGQAWYSFGWESLLLETGFLMIFLGNERTAPPILTLLLARWLLFRVEFGAGLIKMRGDSCWRSLTCLYYHHETQPMPGPLSWFFHHLPKPLHRIEVAGNHFAQLVVPFGLFTPQPAASIAAAIIVVTQLWLVASGNFSWLNWLTILLACSAIDTSSAAALLPMPAQPALSAPPQWFAGLVVVFTAAVLLLSYWPARNLLSSHQRMNMSFNPFHLVNTYGAFGSICRTRREVVIEGTDESPITEQTVWKAYEFKGKPGDPRRLPRQWAPYHLRLDWLMWFAAISPGYALPWMTPFLNRLLRNDPATLKLLRHNPFPQSPPRYVRAQLYQYRFTTVAELRRDRAWWHRTLIGRYVPPMSLRKVASPPAD”, the protein production result was “failed”.

With “MKKTTLFVLGLLFNSFLNAVDGISKTDLSSLNLAEDSAPLNHPNAQKLSLKNAWTRVLSNHEGLHAQEYAIKRASKMKLAAKLSFLPQIDLSAFYVYLSNPIKMDFASQKQPGVQKATNQIHQGIQNIQQNIPSQVLTPQIQAGMQGVMQGFGALSSTLEAPLLFSKQNVVIGALSIIYPLYMGGARFTMVRIADLMQKDANEVYRLKKLSTFQELVSVYYGMVLNAEVAETLEEVEKGHYKHFQNALKMQKVGQIARVETLGAQVAYDKAHIASVKAKDVLEVSQLSFNSILSSKDDLVPSSKLEIRTEKNLPDLSFFVSSTLNSYPVLKTLENQIQISKENTKLQIAKFLPQVSFFGSYIMKQNNSVFEDMIPSWFVGVAGRMPILSPTGRIQKYQASKLAELQVSSEQIQAKKNMELLVNKTYKETLSYLKEYKSLLSSVELAKENLKLQEQAFLQGLSTNAQVIDARNTLSSIVVEQKSVAYKYIVSLANLMALSDHIDLFYEFVY”, the protein production result is on record as “failed”.

Turning to “MRACAPIFRLLGGGVEHLGKSGRPGSGGRWWPLCGWLALAALVPAVQAEEGEPAPVEASAAARLVDVNEYFVRGNTVLDARAIEEAVYPFLGPQKALADIEGARDALQKVYQERGYQSVFVELPEQKVEDGIVYLQVSETKVGRVRVVGAKHYSPVEIRDQVPALKEGEVPDFATVQSQLAGLNRGAGRQVMPLVREGQRPGTMDVDLQVEDQNPWHASVGLNNDYSADTEKLRTVVNVGYDNLWQLGHSISLTYFTAPQDTDNAKVWSGSYTAPLSDRWALQFSGYQSDSNIATIGGSNVLGKGHSYGVSAIYTLPAAGNWANSLSVGVDFKDFEEEMRFGRSSDQIPLKYAPMTFGYNGYRYSEKAQLGLGLNLIVGTRRFFGYGSDAEEFHYKRDEASASFSVLKGDLNFTYTFANDWQSASKAAFQLASGPLVSNEQYSAGGATSVRGYLAAERTGDEGYLFSQELRTPSLAKFLGSYVQEWRFYAFAEGAHLSLHDPLPEQEDEYSLASVGLGTRASLSKWLSGSLDWGYPLKDGPNTQKYDPRLHFSVQATF”, the protein production result is given as “failed”.

With “IIAWLGPQLRELTPVDTNKDPKTRLQEFLQSRGCDLPRYEVVDIQGEPHCRTFFVDCEVALLSDKTHGHGGSRRIAEQVAAAAALVALGVENGHD”, the protein production result is “failed”.

Consider “MKKIATATIATAGIATFAFAHHDAQAAEQNNDGYNPNDPYSYSYTYTIDAEGNYHYTWKGNWSPDRVNTSYNYNNYNNYNYYGYNNYSNYNNYSNYNNYNNYQSNNTQSQRTTQPTGGLGASYSTSSSNVHVTTTSAPSSNGVSLSNARSASGNLYTSGQCTYYVFDRVGGKIGSTWGNANNWANAAARSGYTVNNSPAKGAILQTSQGAYGHVAYVEGVNSNGSIRVSEMNYGHGAGVVTSRTISASQAASYNYIHLEHHHHHH”, for which the protein production result is on record as “failed”.

For the sequence “MSAKKLFIQTLGCAMNVRDSEHMIAELTQKENYALTEDIKEADLILINTCSVREKPVHKLFSEVGGFEKVKKEGAKIGVCGCTASHLGNEIFKRAPYVDFVLGARNISKITQAIKTPKFMGVDIDYDESEFAFADFRNSIYKSYINISIGCDKHCTYCIVPHTRGDEISIPFNIIYKEAQKAIEKGAKEIFLLGQNVNNYGKRFRNEHKKMDFSDLLEELSTIEGLERIRFTSPHPLHMDDKFLEVFANNPKVCKSMHMPLQSGSSEILKAMKRGYTKEWYLNRALKLRELCPNVSISTDIIVAFPGESEKDFEETVDVLEKVRFEQIFSFKYSKRPLTKAATMPNQIDEEIASRRLSTLQNRHSEILDKIVKKQENKTFKVLFEELRAGNSIAGRTDNNFLVQVEGSEELLGQFKEVKITNAKRMVLYGEIVLEHHHHHH”, the protein production entry is “failed”.

On to “MACFSDLSKECDMEGCRNHDFLPYKCEYCKLIFCEFHRNAEEHLCSKLKDMELNTVVLCEYCGIVLPDKKEDIQNHLIYKCLYKKKTKSILMCNKRDCKKVLNGINNYICKKCRKSFCLPHRYSDVHNCIKSDEEKSFFKSNIKKNKYILKVTTDGFINTTTHFFNSHTYIVC”, for which the protein production entry is recorded as “failed”.

“MIEKVYEFKRDAKTKVVEKLVNTEHVQINHIVLPRGEQMPKHYSNSYVHLIIIKGEMTLTLEDQEPHNYKEGNIVYVPFNVKMLIQNINSDILEFFVVKAPHPKKLNAPEDPIKCE”: the protein production result is “not failed”.

On to “SSPPSGCPMHEGKMKGCPVNTEPSGPTCEKKTYSVPAHQERAYEYVECPIRGTAAENKENLDPSNLMPPPNQTPAPDQPFALSTVREESSIPRADSEKKWVYPSEQMFWNAMLKKGWKWKDEDISQKDMYNIIRIHNQNNEQAWKEILKWEALHAAECPCGPSLIRFGGKAKEYSPRARIRSWMGYELPFDRHDWIINRCGTEVRYVIDYYDGGEVNKDYQFTILDVRPALDSLSAVWDRMKVAWWRWTS”, for which the protein production result is reported as “failed”.

Consider “MAAWRAEARRLAQAGVPAESVVWRVGAGEADLFADLPALPAGPARQIRLSREAVGSLETALCHADPERFGRAYGLLLRLADGTLRWGDRSDPALRKLLAQEKMVRREIHKMHAFVRFRELPSEGPRRAFAAWFEPDHPVEEAATPFFARRFGDMDWAIVTPEVTARFVAGQLDFALTEERTAPPADGTEELWRTYYANIFNPARLMVKAMQSEMPKRYWKNLPEAELIPGLIRGAAERAAEMQAAAPTEPPARTAAVARQRAAAAGGPAAAGDGSAPGTLAEAKTAAEGCRRCGLWANATQVVFGEGPATARMMIVGEQPGDREDLAGRPFVGPAGQLFDEEAAAAGLDRGSVYVTNAVKHFKFAPRGKRRIHQKPDAGEVTACRWWLDLERDLVRPRLIVAMGATALASLTGSGAGILKRRGSVERLDDGTPVFVTVHPSYILRLPDEAARVEERRRFRDDLQAARQLLERLD”, for which the protein production result was “failed”.

As to “MLFEASLVAVWAFFCGIDKYDVALNIHRPLITGPVVGLIMGDMQIGLIAGATLELAWLGLVPNAGAQPPDVTMGTIAAVAFAVMTGQSPEVAMGVGMPIAVLMQMLVIGFFAMTSFTMGKADKYAEEANTNGIDFLLLSTITMRSMLYAVIAFLTVYFGEHGAAWIDANAPKTLLEGLGIGAKMVPAIGFAMLLKIMWSKEVAGVFFIGFVMTTYLQLPIMAVAILGASAAALYYFFSGNGNKNSNQEFEDFEDGI”, the protein production entry was “failed”.

For “MATNLKSTAKLVKPIQYDEVIEVERIFADPAFIEQHRQRILASFKDAKESALYHELTHIVIKDNLFSCAMNAIVGYFEFNIDEAELKNVMEGLKRDVIQGAEDNTVQAIAEKIIKKALVFNHLQKEWKVEITDEVVKNVISLYYEKTNQSVREYLDDKQKFEGVRTALLEERMVLETINHFKFHFNLTGQLPN”, the protein production result was “not failed”.

For the sequence “SNRQVQLMARQQRLKAIEDRLEKFYIPLIKAFSSYVYTAQTEDEIETIITCRRYLAGNNLLRVLPMHFKFKADKIAGSANWTFYAKEDFEQWKEALDVLWEEFLEVLKEYYTLSGTEISLPEKPDWLIGYK”, the protein production result is “not failed”.

As for “MASFDGQGFMMVDNSWVQTKAIDVESTTDISPYLSKILEDSVWNGNRSIVFDVYWDVKSVSTKSEWRLCSVKFSTKNFCLFLRLPNPFCDNLKDLYRFFASKFVTFVGVQIQEDLALLKENHGIVIRSSLEIGKLAAKARGTPIVEFLGTRELAHKILWYDMSRLDSIQSKWDEASSNDRLEAAAIEGWLIFNVYDQLQQ”, the protein production result is recorded as “failed”.

With “MMRRYFYQFSQKMITSVWWLLFVPMLLFAVMSPNIILGDNATFGTSTTLLTTGLIIVIVAVLIMNYAYPRVHRGLYRLLITKQLRTAGVLLALVFIGQLVFVTFVHPVSGFDAGMLHYAATSAKHVQEVGVTAYYSLNQNNMPIMLFMHWLSEVTGQTSWQFFDYVTLFFVDLSAAFNLMSVFVVRRSALGIAMYLHAGWLAVFPSIIMPYTDAWGLPLVSFFMLCYFVMSQTKRPPLLRVAAAVGFGVSVTLTYFMKPSSIIPVIAIAIISFLARLRSRQGSQTTMIFVTVAMAILMLESAGLTYHYTNQAIQNQTYIKIDKSRSIPAIHFMAMGVYGSGGYSEKQAIQMAVLPTKAQKTAYSIKMLKRQLKKLGPWGYLEFLVKKQRNNTADGTFGWLKEGNFFRENQKPSNQGFSNWLKNFIYLYGRHIADFRFVAQLWWLVLLVIIALGFGPRWQLIQLLRLAMIGGFIFLLLFEGGRSRYLIQYLPCLLLLGAFSFERAVANIRRVRDWYQRKLRAAIAADESE”, the protein production entry is listed as “failed”.

With “MSVILLGLGRYVEEIVEVVSAISDVVLVERDEARLRAFLEKAPVANLRALPGSATDVGLWKEVDLEAAEAVISFLSVEATLDVARLLRKALGYRSKIVHVSKARPDPQAVRELDLEVVSIPEVLGAILRNLLQGQGIVRYPVGIGLRKGEVVEVLITESSPAVYARLRELRQPGARVALVYREGSPILPRADFRVQPGDRLLVVGDPRGVEIFVGAVIRGEPTFPRRFGSVGALCRAEDEEALYLKERLKVRDWVEACEDPKGVAEVGVFLARDRDWVRRAFQEGYPFPSFHLRGTHPYRSILVSANTEALSPLLASAMDLARIFGSEVYVLFVSRVEAFMPPEEKELLENLKVLVERARKTSGLEVHLIRKEGNPVRETLRLLKGKFNLLALGYTPGRRTAFFRPYVPQLLAQASPVSTLLVPEVNLER”, the protein production entry is reported as “failed”.

Consider “MAVKHASAPKAYINITGLGFAKLTKEGAELKYSDITKTRGLQKIGVETGGELKTAYADGGPIESGNTDGEGKISLQMHAFPKEIRKIVFNEDYDEDGVYEEKQGKQNNYVAVWFRQERRDGTFRTVLLPKVMFTNPKIDGETAEKDWDFSSEEVEGEALFPLVDNKKSVRKYIFDSANMTNHGGDGEKGEEAFLKKILGEEYTGNVTEDNEETLLEHHHHHH”, for which the protein production entry is “not failed”.

For “MPTTKQLKDTELPLNFFEHSSLETIELFIQHLTEAMILVNANGFIRSCNQRSAELLDCPQVSLKGQDWRNFLTEHHQARYDNLLSHDVQLGTNCGQPVQHPAQETTLICASGKAKDVELSISYIPGHEPMFVMVMHDLTHHKAENQKLRKLAATDSLTQLANRRYFDEMLQQHWEECTAKLRPISVVIIDVDYFKVFNDQFGHIQGDECLRKIAKVIAGIVPTEIGLAARYGGEEFALILPNHNAKMALTIAQKIQQGINNIRFTDQGLRDYVSVSASQGIACEVNGQFRTSLAMVCAADTALYRAKADGRDRINTSL”, the protein production entry is reported as “failed”.
